We go through one molecule from PMC12531337.

The series addresses T1, ZEB2 ZnF8 peptide (UniProt O60315 1055-1076).
T1 chain: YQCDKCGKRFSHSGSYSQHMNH
As to the kind of experiment: NMR.

B1: ZnF-binding DNA (E2 box) (dsDNA)
DNA 1: GTAATCTGGGCCACCTGCCTGGGAGGA
DNA 2: TCCTCCCAGGCAGGTGGCCCAGATTAC
For the molecule B1, the binding result is reported as “binds”.
